From the supplement of paper PMC7877785
± gives the uncertainty stated by the source.

Experiment: self-splicing fitness, log relative to wild type (ln ratio); higher = more splicing; Tetrahymena group I intron in knt gene, E. coli kanamycin selection, DiMSum; sequences stand for … in CUCUCU…GGAGGGAAAAGUUAUCAGGCAUGCACCUGGUAGCUAGUCUUUAAACCAAUAGAUUGCAUCGGUUUAAAAGGCAAGACCGUCAAAUUGCGGGAAAGGGGUCAACAGCCGUUCAGUACCAAGUCUCAGGGGAAACUUUGAGAUGGCCUUGCAAAGGGUAUGGUAAUAAGCUGACGGACAUGGUCCUAACCACGCAGCCAAGUCCUAAGUCAACAGAUCUUCUGUUGAUAUGGAUGCAGUUCACAGACUAAAUGUCGGUCGGGGAAGAUGUAUUCUUCUCAUAAGAUAUAGUCGGACCUCUCCUUAAUGGGAGCUAGCGGAUGAAGUGAUGCAACACUGGAGCCGCUGGGAACUAAUUUGUAUGCGAAAGUAUAUUGAUUAGUUUUGGAGUACUCGUGGUCG
How it was run: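 Colonies from six replicate transformations of E. coli BL21(DE3) were pooled and amplicon-sequenced on an Illumina HiSeq 2500. The library placed an intron with all eight P1ex-region nucleotides randomised inside the knt kanamycin-resistance gene on pET-22b(+), and cells grew overnight at 37°C or 30°C on LB agar with or without 25 μg/mL kanamycin (plus 100 μg/mL carbenicillin, 50 μM IPTG, 0.2% rhamnose). Fitness is the DiMSum error-weighted combination of wild-type-normalised replicate fold changes, kanamycin versus none.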

Sequence | self-splicing fitness (ln) (30 °C) | self-splicing fitness (ln) (37 °C)
UACAAGCAAUAUUACGCCUC | -3.38 ± 0.48 | -2.1 ± 0.4
UACAAGCAAUAUUACGCGAA | -2.37 ± 0.099 | -0.769 ± 0.095
UACAAGCAAUAUUACGCGCA | -0.13 ± 0.081 | 0.163 ± 0.11
UACAAGCAAUAUUACGCGUG | -2.09 ± 0.11 | -1.37 ± 0.098
UACAAGCAAUAUUACGGAAC | -3.75 ± 0.27 | -2.28 ± 0.25
UACAAGCAAUAUUACGGACC | -2.74 ± 0.14 | -0.499 ± 0.18
UACAAGCAAUAUUACGGCAG | -0.426 ± 0.078 | -0.134 ± 0.11
UACAAGCAAUAUUACGGCCA | -0.557 ± 0.14 | 0.111 ± 0.16
UACAAGCAAUAUUACGGCGG | -0.215 ± 0.065 | 0.218 ± 0.084
UACAAGCAAUAUUACGGGGC | -5.04 ± 0.34 | -2.46 ± 0.17
UACAAGCAAUAUUACGGUAC | -4.41 ± 0.31 | -3.1 ± 0.33
UACAAGCAAUAUUACGUAAG | -3.96 ± 0.21 | -3.05 ± 0.19
UACAAGCAAUAUUACGUAUA | -2.22 ± 0.13 | -0.891 ± 0.12
UACAAGCAAUAUUACGUCAA | -3.18 ± 0.2 | -1.67 ± 0.13
UACAAGCAAUAUUACGUGAG | -3.54 ± 0.17 | -1.91 ± 0.14
UACAAGCAAUAUUACGUUAC | -4.21 ± 0.23 | -2.84 ± 0.22
UACCAGCAAUAUUACGAAAG | -1.95 ± 0.15 | -1.28 ± 0.15
UACCAGCAAUAUUACGACAU | -1.381 ± 0.012 | -0.566 ± 0.032
UACCAGCAAUAUUACGACGC | -2.41 ± 0.12 | -1.73 ± 0.15
UACCAGCAAUAUUACGACGG | -0.833 ± 0.06 | -0.237 ± 0.094
UACCAGCAAUAUUACGAGAC | -2.38 ± 0.18 | -1.54 ± 0.2
UACCAGCAAUAUUACGAGCA | -0.673 ± 0.066 | 0.225 ± 0.09
UACCAGCAAUAUUACGAUAG | -1.1 ± 0.067 | 0.0475 ± 0.097
UACCAGCAAUAUUACGAUCU | -1.77 ± 0.13 | -1.08 ± 0.16
UACCAGCAAUAUUACGCAAA | -1.54 ± 0.081 | 0.0436 ± 0.096

Sequence | self-splicing fitness (ln) (30 °C) | self-splicing fitness (ln) (37 °C)
UACCAGCAAUAUUACGCCUU | -0.707 ± 0.066 | -0.62 ± 0.074
UACCAGCAAUAUUACGGCUG | -3.63 ± 0.14 | -2 ± 0.15
UACCAGCAAUAUUACGGGGU | -4.41 ± 0.16 | -2.68 ± 0.15
UACCAGCAAUAUUACGUAAA | -0.982 ± 0.071 | -0.408 ± 0.097
UACCAGCAAUAUUACGUACA | -0.719 ± 0.071 | -0.432 ± 0.1
UACCAGCAAUAUUACGUCAG | -0.702 ± 0.095 | -1.16 ± 0.11
UACCAGCAAUAUUACGUUCG | -0.545 ± 0.071 | 0.0802 ± 0.092
UACGAGCAAUAUUACGAAGA | -2.13 ± 0.37 | 
UACGAGCAAUAUUACGAAGC | -2.71 ± 0.35 | -0.927 ± 0.34
UACGAGCAAUAUUACGAAGU | -4.33 ± 0.39 | -2.41 ± 0.24
UACGAGCAAUAUUACGACAA | -2.15 ± 0.47 | -1.2 ± 0.31
UACGAGCAAUAUUACGACGA | -1.85 ± 0.18 | -0.325 ± 0.13
UACGAGCAAUAUUACGAGUA | -2.84 ± 0.15 | -2.52 ± 0.15
UACGAGCAAUAUUACGCAGA |  | -2.33 ± 0.31
UACGAGCAAUAUUACGCAUG | -2.37 ± 0.25 | -2.25 ± 0.24
UACGAGCAAUAUUACGCCAU |  | -1.84 ± 0.31
UACGAGCAAUAUUACGCCUU | -3.54 ± 0.43 | 
UACGAGCAAUAUUACGCGAU | -4.05 ± 0.3 | -2.28 ± 0.22
UACGAGCAAUAUUACGCGUA |  | -2.35 ± 0.41
UACGAGCAAUAUUACGCUGG | -3.2 ± 0.27 | -1.77 ± 0.16
UACGAGCAAUAUUACGGAUU | -2.38 ± 0.33 | 
UACGAGCAAUAUUACGGCAC |  | -2.53 ± 0.41
UACGAGCAAUAUUACGUAAG | -3.58 ± 0.2 | -2.33 ± 0.19
UACGAGCAAUAUUACGUAAU | -4.22 ± 0.31 | -1.43 ± 0.19
UACGAGCAAUAUUACGUAGU | -3.39 ± 0.32 | -2.95 ± 0.33
